These results are taken from article PMC3934923.

The target of the assay is LKB1 (endogenous, C2C12 myotubes) (mouse (endogenous in C2C12)) (UniProt Q9WTK7). As to conditions: scale: % of the AMPK phosphorylation obtained with AICAR.
Sequence of UniProt Q9WTK7 (Q9WTK7 whole entry): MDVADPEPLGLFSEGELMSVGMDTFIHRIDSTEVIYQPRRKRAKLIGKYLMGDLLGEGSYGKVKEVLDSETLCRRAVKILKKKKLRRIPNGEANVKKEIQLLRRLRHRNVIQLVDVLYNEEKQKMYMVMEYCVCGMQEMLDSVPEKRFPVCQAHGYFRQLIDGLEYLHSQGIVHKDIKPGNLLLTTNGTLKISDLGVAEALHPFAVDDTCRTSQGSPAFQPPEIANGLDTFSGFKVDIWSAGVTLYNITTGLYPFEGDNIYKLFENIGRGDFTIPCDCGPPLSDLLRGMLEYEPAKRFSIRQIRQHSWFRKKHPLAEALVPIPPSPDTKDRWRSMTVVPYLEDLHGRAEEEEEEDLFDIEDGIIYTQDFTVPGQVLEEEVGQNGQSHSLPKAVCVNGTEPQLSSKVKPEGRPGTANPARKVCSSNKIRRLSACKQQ

The substance “Fyn (endogenous, C2C12 myotubes) (from UniProt P39688 1-537) (enzyme)” registered an AMPK T172 phosphorylation in C2C12 myotubes transduced with increasing concentrations of 11R-WT, immunoblot; little effect with 11R-Sca of 80.
